These results are taken from PMC10284417.

In this test the target is EtpA^1-606 (Enterotoxigenic Escherichia coli (ETEC)). The test is described as follows: dynamic light scattering; Zetasizer, 4°C, 1 mg/mL protein in 20 mM Tris pH 7.5, 150 mM NaCl.

Regarding EtpA^1-606 (domain or fragment), the stoichiometry N (in general, a count of units in the complex or per binding partner) was found to be 2.
